Results reported in patent US20250368745A1 (published 2025).
Substitutions are numbered along the chain they refer to. In names and notes the source's numbering stands.

T1: human IL-18BP (interleukin-18 binding protein, isoform A) (human, UniProt O95998 31-194)
T1 sequence: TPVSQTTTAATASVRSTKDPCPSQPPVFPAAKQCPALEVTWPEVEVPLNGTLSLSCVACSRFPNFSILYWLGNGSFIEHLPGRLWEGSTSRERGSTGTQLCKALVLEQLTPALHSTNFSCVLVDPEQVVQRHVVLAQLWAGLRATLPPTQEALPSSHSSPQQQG

T2: cynomolgus IL-18BP (cynomolgus monkey)
T2 construct: Generated in-house; also called cyIL-18BP; cyno IL-18BP
T2 chain: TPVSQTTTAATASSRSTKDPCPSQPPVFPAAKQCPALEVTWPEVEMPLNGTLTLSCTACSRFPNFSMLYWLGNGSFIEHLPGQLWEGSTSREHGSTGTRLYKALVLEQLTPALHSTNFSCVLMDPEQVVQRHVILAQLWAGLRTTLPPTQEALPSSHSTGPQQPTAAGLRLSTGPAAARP

B1: SA302a (antibody, human IgG1, V domains shown)
VH: QVQLQESGPGLVKPSQTLSLTCTVSGYSITSDYNAHWIRQPPGKGLEWIGYIHYSGSTNYNPSLKSRVTISRDTSKNQFSLKLSSVTAADTAVYYCARNYGSIYVNYFDYWGQGTLVTVSS
VL: EIVLTQSPATLSLSPGERATLSCSASSSVSYMYWYQQKPGQAPRPLIYRTSNLASGIPARFSGSGSGTDFTLTISSLEPEDFAVYYCQQYHSYPTFGGGTKVEIK
notes: humanized; human IgG1 (suffix a), kappa
B2: SA315a (antibody, human IgG1, V domains shown)
VH: B1 VH with S57Q, N59M, Y100F
VL: B1 VL
notes: as for B1
B3: SA313a (antibody, human IgG1, V domains shown)
VH: B1 VH with N59M, Y100F
VL: B1 VL
notes: as for B1
B4: SA316a (antibody, human IgG1, V domains shown)
VH: B1 VH with N59Y
VL: B1 VL
notes: as for B1
B5: SA330a (antibody, human IgG1, V domains shown)
VH: B1 VH with S57Q, N59Y, Y100F
VL: B1 VL
notes: as for B1
B6: SA329a (antibody, human IgG1, V domains shown)
VH: B1 VH
VL: B1 VL with T95K
notes: as for B1
B7: SA325a (antibody, human IgG1, V domains shown)
VH: B1 VH
VL: B1 VL with Q89E
notes: as for B1
B8: SA326a (antibody, human IgG1, V domains shown)
VH: B1 VH
VL: B1 VL with Q89L
notes: as for B1
B9: SA312a (antibody, human IgG1, V domains shown)
VH: B1 VH with S31Q, N59M
VL: B1 VL
notes: as for B1
B10: SA321a (antibody, human IgG1, V domains shown)
VH: B1 VH with S31Q, S57Q, N59L, Y100F
VL: B1 VL
notes: as for B1
B11: SA311a (antibody, human IgG1, V domains shown)
VH: B1 VH with S57Q, N59M
VL: B1 VL
notes: as for B1
B12: SA328a (antibody, human IgG1, V domains shown)
VH: B1 VH
VL: B1 VL with P94V
notes: as for B1
B13: SA317a (antibody, human IgG1, V domains shown)
VH: B1 VH with N59L
VL: B1 VL
notes: as for B1
B14: SA318a (antibody, human IgG1, V domains shown)
VH: B1 VH with S31Q, S57Q, N59M, Y100F
VL: B1 VL
notes: as for B1
B15: SA327a (antibody, human IgG1, V domains shown)
VH: B1 VH
VL: B1 VL with S92G
notes: as for B1
B16: SA319a (antibody, human IgG1, V domains shown)
VH: B1 VH with S31Q, S57Q, Y100F
VL: B1 VL
notes: as for B1
B17: SA340a (antibody, human IgG1, V domains shown)
VH: B1 VH with S31Q, S57Q, N59Y, Y100F
VL: B1 VL with T95K
notes: as for B1
B18: heavy chain library variant C34E (antibody, V domains shown)
VH: B1 VH with A35E
VL: B1 VL
B19: heavy chain library variant C34P (antibody, V domains shown)
VH: B1 VH with A35P
VL: B1 VL
B20: heavy chain library variant C34K (antibody, V domains shown)
VH: B1 VH with A35K
VL: B1 VL
B21: heavy chain library variant C34L (antibody, V domains shown)
VH: B1 VH with A35L
VL: B1 VL
B22: heavy chain library variant C34F (antibody, V domains shown)
VH: B1 VH with A35F
VL: B1 VL
B23: heavy chain library variant C34D (antibody, V domains shown)
VH: B1 VH with A35D
VL: B1 VL
B24: heavy chain library variant C34I (antibody, V domains shown)
VH: B1 VH with A35I
VL: B1 VL
B25: heavy chain library variant C34R (antibody, V domains shown)
VH: B1 VH with A35R
VL: B1 VL
B26: heavy chain library variant C34H (antibody, V domains shown)
VH: B1 VH with A35H
VL: B1 VL
B27: heavy chain library variant C34Q (antibody, V domains shown)
VH: B1 VH with A35Q
VL: B1 VL
B28: SA302a heavy chain variant N33bQ, C34A (antibody, human IgG1, V domains shown)
VH: B1 VH with N34Q
VL: B1 VL
notes: library variant, human IgG1/kappa, from supernatant
B29: SA302a heavy chain variant N33bM, C34A (antibody, human IgG1, V domains shown)
VH: B1 VH with N34M
VL: B1 VL
notes: as for B28
B30: SA302a heavy chain variant N33bT, C34A (antibody, human IgG1, V domains shown)
VH: B1 VH with N34T
VL: B1 VL
notes: as for B28
B31: heavy chain library variant C34N (antibody, V domains shown)
VH: B1 VH with A35N
VL: B1 VL
notes: position 34 variant, human IgG1/kappa, from supernatant; C is the SA44a residue

target: T1, human IL-18BP (interleukin-18 binding …); assay: cell-based or functional assay

Binder | EC50 in PBMC Assay 1 (endogenous IL-18BP), IFNγ | EC50 in PBMC Assay 2 (precomplexed IL-18BP), IFNγ
B1 | 15 nM | 2.15 nM
B2 | 0.5 nM | 0.49 nM
B3 | 1.2 nM | 0.71 nM
B4 | 0.6 nM | 0.64 nM
B5 | 21 nM | 0.9 nM
B6 | 5.3 nM | 7.4 nM
B7 | 6.1 nM | 5 nM
B8 | 7.5 nM | 1.2 nM
B9 | 2.1 nM | 0.74 nM
B10 | 0.9 nM | 0.85 nM
B11 | 0.6 nM | 1.24 nM
B12 | 2 nM | 5.8 nM
B13 | 0.4 nM | 0.45 nM
B14 | 0.9 nM | 0.7 nM
B15 | 7.1 nM | 4 nM
B16 | 0.2 nM | 0.07 nM

target: T1, human IL-18BP (interleukin-18 binding …); assay: BLI, affinity column of Table E8

Binder | Kd
B1 | 0.345 nM
B2 | 0.039 nM
B3 | 0.272 nM
B4 | 0.228 nM
B5 | 0.076 nM
B6 | 0.107 nM
B7 | 0.468 nM
B8 | 0.128 nM
B9 | 0.117 nM
B10 | 0.136 nM
B11 | 0.243 nM
B12 | 0.133 nM
B13 | 0.329 nM
B14 | 0.015 nM
B15 | 0.249 nM
B16 | 0.254 nM

target: T1, human IL-18BP (interleukin-18 binding …); assay: BLI (Octet), mAb on AHC biosensor

Binder | Kd
B1 | 0.345 nM
B2 | 0.039 nM
B3 | 0.272 nM
B4 | 0.228 nM
B5 | 0.076 nM
B6 | 0.107 nM
B7 | 0.468 nM
B8 | 0.128 nM
B9 | 0.117 nM
B10 | 0.136 nM
B17 | 0.027 nM
B11 | 0.243 nM
B12 | 0.133 nM
B13 | 0.329 nM
B14 | 0.015 nM
B15 | 0.249 nM
B16 | 0.254 nM

Target: T2, cynomolgus IL-18BP
Assay: BLI (Octet), mAb on AHC biosensor

Binder | Kd
B1 | 0.156 nM
B17 | 0.036 nM

Target: T2, cynomolgus IL-18BP
Assay: ratio of BLI KDs, cyno against human IL-18BP

Binder | Cyno/human
B1 | 0.45 ratio
B17 | 1.33 ratio

target: T1, human IL-18BP (interleukin-18 binding …); assay: BLI single-concentration screen, apparent KD

Binder | Kd
B18 | 0.9 nM
B19 | 20.6 nM
B20 | 1 nM
B21 | 0.4 nM
B22 | 0.6 nM
B23 | 0.5 nM
B24 | 1 nM
B25 | 1.8 nM
B26 | 0.4 nM
B27 | 0.6 nM
B28 | 1.8 nM
B29 | 0.9 nM
B30 | 0.1 nM
B31 | 1 nM

Target: T2, cynomolgus IL-18BP
Assay: BLI single-concentration screen, apparent KD

Binder | Kd
B18 | 0.5 nM
B19 | 9.8 nM
B20 | 0.5 nM
B21 | 0.3 nM
B22 | 0.5 nM
B23 | 0.4 nM
B24 | 0.6 nM
B25 | 0.6 nM
B26 | 0.2 nM
B27 | 0.4 nM
B28 | 1.6 nM
B29 | 1 nM
B30 | 0.3 nM
B31 | 0.6 nM
